Experimental data as given in publication PMC10730160 (mAbs, 2023).

Tests used:
[1] = target: CTLA-4 antigen (in solution, for HDX-MS and cross-linking) (human, UniProt P16410); test: HDX-MS
[2] = target: mouse CTLA-4, on CHO-K1 cells (Mus musculus, UniProt P09793); test: ELISA
[3] = target: human CTLA-4, wild type, on CHO-K1 cells (human, UniProt P16410); test: flow cytometry on cells
human CTLA-4, wild type, on CHO-K1 cells, sequence (P16410 36-223): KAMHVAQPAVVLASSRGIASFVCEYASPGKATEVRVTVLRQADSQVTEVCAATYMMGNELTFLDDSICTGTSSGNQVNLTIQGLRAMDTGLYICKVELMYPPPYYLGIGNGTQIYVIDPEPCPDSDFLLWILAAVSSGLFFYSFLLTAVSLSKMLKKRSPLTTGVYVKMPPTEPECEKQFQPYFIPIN

CTLA-4 antigen (in solution, for HDX-MS and cross-linking), sequence (P16410 36-223): as above

B1: tremelimumab (antibody, V domains shown)
VH: QVQLVESGGGVVQPGRSLRLSCAASGFTFSSYGMHWVRQAPGKGLEWVAVIWYDGSNKYYADSVKGRFTISRDNSKNTLYLQMNSLRAEDTAVYYCARDPRGATLYYYYYGMDVWGQGTTVTVSS
VL: DIQMTQSPSSLSASVGDRVTITCRASQSINSYLDWYQQKPGKAPKLLIYAASSLQSGVPSRFSGSGSGTDFTLTISSLQPEDFATYYCQQYYSTPFTFGPGTKVEIK
[1]
  binding result: binds
[2]
  binding result: no binding
[3]
  binding result: binds
